Literature values as cited in PMC9445421.
Where two headings read alike, the source gives them in different places.

Legend:
TrkB (Homo sapiens) [1] = biological target: TrkB (Homo sapiens) (UniProt Q16620)
TrkB (Homo sapiens) [2] = biological target: TrkB (Homo sapiens) (UniProt Q16620); remark: listed apart in the source

Sequence of UniProt Q16620 (Q16620 32-430): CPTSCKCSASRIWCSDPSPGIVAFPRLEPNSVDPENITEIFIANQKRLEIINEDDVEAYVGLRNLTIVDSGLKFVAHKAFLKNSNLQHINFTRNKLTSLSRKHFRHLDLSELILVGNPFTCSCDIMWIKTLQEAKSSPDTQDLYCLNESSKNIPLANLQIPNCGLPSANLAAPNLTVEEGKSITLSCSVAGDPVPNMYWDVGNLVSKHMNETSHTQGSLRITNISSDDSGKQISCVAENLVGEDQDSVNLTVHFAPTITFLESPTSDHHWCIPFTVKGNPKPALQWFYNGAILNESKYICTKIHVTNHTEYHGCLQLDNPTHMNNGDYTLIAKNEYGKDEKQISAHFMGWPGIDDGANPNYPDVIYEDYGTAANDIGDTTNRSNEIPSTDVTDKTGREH

Row | Substance | Kd (TrkB (Homo sapiens) [1]) [nM] | Kd (TrkB (Homo sapiens) [2]) [nM]
1 | BDNF (from UniProt P23560) | 0.79 | –
2 | NT4 (from UniProt P34130) | – | 0.26
